Experimental data: patent US20220073620A1 (CHANGCHUN GENESCIENCE PHARMACEUTICAL, published 2022)

T1: human VEGF-A-His (human, UniProt P15692 207-395)
T1 construct: also called hVEGF-A
T1 sequence: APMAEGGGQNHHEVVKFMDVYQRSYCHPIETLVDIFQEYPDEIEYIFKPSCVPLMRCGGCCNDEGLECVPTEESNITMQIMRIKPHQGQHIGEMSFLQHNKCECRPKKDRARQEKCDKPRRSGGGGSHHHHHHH


Legend:
VEGFA protein = VEGFA protein (UniProt P15692-4 27-191, limits assumed); assay: cell-based or functional assay
human VEGF-A-His = biological target: T1, human VEGF-A-His; assay: SPR (Biacore T200), human VEGF-A-His coupled to the chip, fusion protein flowed over
Protocol: The affinities of FabT and FTF were detected by Biacore T200 instrument. The specific protocols were as follows. Human PD-L1-His (constructed by GeneScience, SEQ ID NO: 11) and human VEGF-A-His (constructed by GeneScience, SEQ ID NO: 13) were coupled to CMS biosensor chip (GE), and then the antibodies of different concentrations were flowed through the chip at a flow rate of 30 μL/min. The binding between the candidate antibody and antigen was performed with a binding time of 120 s and a dissociation time of 300 s. The kinetic fitting was performed using BIAevalution software (GE), and the results of affinity constants were obtained as shown in Table 6 and Table 7.

Human PD-L1-His = biological target: T2, Human PD-L1-His (human, UniProt Q9NZQ7 19-238); assay: bridging ELISA, hPDL1-His and hVEGF121b-mFc as the two antigens; control diluted from 10 ug/ml
T2 construct: also called hPD-L1
T2 sequence (Q9NZQ7 19-238 limits assumed): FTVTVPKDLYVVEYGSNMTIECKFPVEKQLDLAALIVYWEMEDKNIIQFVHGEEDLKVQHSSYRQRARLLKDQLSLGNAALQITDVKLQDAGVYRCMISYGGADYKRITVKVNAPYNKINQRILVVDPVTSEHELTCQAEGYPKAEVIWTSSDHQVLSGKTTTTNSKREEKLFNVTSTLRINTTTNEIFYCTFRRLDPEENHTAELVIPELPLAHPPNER

[1] = biological target: PDL1 on the surface of CHO-PDL1-CD3L cells (UniProt Q9NZQ7 19-290, limits assumed); assay: cell-based or functional assay
PDL1 on the surface of CHO-PDL1-CD3L cells, sequence (Q9NZQ7 19-290 limits assumed): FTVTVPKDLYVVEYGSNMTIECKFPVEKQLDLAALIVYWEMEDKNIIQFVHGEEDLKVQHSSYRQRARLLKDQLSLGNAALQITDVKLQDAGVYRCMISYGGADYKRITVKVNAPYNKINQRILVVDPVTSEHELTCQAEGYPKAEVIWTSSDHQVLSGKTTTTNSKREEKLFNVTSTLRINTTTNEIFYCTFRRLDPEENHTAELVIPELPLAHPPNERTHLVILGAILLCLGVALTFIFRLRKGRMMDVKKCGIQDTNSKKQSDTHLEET

Row | IC50, luciferase reporter in NFAT-RE-Luc2P-KDR-HEK293 cells stimulated with 50 ng/ml VEGFA (VEGFA protein) [nM] | Kd (human VEGF-A-His) [nM] | koff (human VEGF-A-His) [s⁻¹] | kon (human VEGF-A-His) [M⁻¹ s⁻¹] | binding result (Human PD-L1-His) | EC50, luciferase reporter in Jurkat-PD1-NFAT cells co-cultured with CHO-PDL1-CD3L cells [1] [nM] | Binder
1 | 0.75 | 1.51 | 0.000932 | 617000 | no binding (tested: 10 ug/ml) | – | Eylea positive fusion protein (Fc fusion, not shown: a dimerising Fc or GST, also called control molecule Eylea) SDTGRPFVEMYSEIPEIIHMTEGRELVIPCRVTSPNITVTLKKFPLDTLIPDGKRIIWDSRKGFIISNATYKEIGLLTCEATVNGHLYKTNYLTHRQTNTIIDVVLSPSHGIELSVGEKLVLNCTARTELNVGIDFNWEYPSSKHQHKKLVNRDLKTQSGSEMKKFLSTLTIDGVTRSDQGLYTCAASSGLMTKKNSTFVRVHEK
2 | – | – | – | – | – | 3.55 | anti-human PD-L1 humanized monoclonal antibody 047 Ab-6 (antibody, V domains shown) VH: EVQLVESGGGLVQPGGSLRLSCAASYFPFSDSWIHWVRQAPGKGLEWVAWISPYGGSSYYADSVQDRFTISADTSKNTAYLQMNSLRAEDTAVYYCAKRHWPGGFDHWGQGTLVTVSS VL: DIQMTQSPSSLSASVGDRVTITCSASQDVTTAVAWYQQKPGKAPKLLIYSASFPYRGVPSRFSGSGSGTDFTLTISSLQPEDFATYYCQQYMYHPSTFGQGTKVEIK
